Assay results published in patent US20020152485A1 (BOSTON HEART FOUNDATION, published 2002).
Values belong to the binder of their own block, whether it stands above or below them.

How the values were obtained:
[1] = molecular target: T1, native human low density lipoprotein (LDL) (human, UniProt P04114 28-4563); assay: affinity coelectrophoresis (ACE): 125I-LBP-3 run through LDL cast in agarose; binding curve
T1 construct: This is a lipoprotein particle (protein plus lipid), not an isolated polypeptide; also called native LDL; cold LDL
Description: (§1) Analysis of the affinity and specificity of recombinant rabbit LBP-1, LBP-2 or LBP-3 binding to LDL was carried out using the principle of affinity electrophoresis (Lee and Lander, Proc. Natl. Acad. Sci. USA 88:2768-2772 (1991)). Melted agarose (1%; 65° C.) was prepared in 50 mM sodium MOPS, pH 7.0; 125 mM sodium acetate, 0.5% CHAPS. A teflon comb consisting of nine parallel bars (45×4×4 mm/3 mm spacing between bars) was placed onto GelBond film (FMC Bioproducts, Rockland, Me.) fitted to a plexiglass casting tray with the long axis of the bars parallel to the long axis of the casting tray. A teflon strip (66×1×1 mm) was placed on edge with the long axis parallel to the short axis of the casting tray, at a distance of 4 mm from the edge of the teflon comb. Melted agarose (>65° C.) was then poured to achieve a height of approximately 4 mm. […] LDL or HDL samples were prepared in gel buffer (50 mM sodium MOPS, pH 7.0, 125 mM sodium acetate) at twice the desired concentration. Samples were then mixed with an equal volume of melted agarose (in 50 mM MOPS, pH 7.0; 125 mM sodium acetate; 50° C.), pipetted into the appropriate rectangular wells and allowed to gel. The binding affinity and specificity of LBP-1 and LBP-3 was tested using several concentrations of LDL (540 to 14 nM) and HDL (2840177 nM). […]

[2] = molecular target: T1, native human low density lipoprotein …; assay: affinity coelectrophoresis (ACE): 125I-LBP-2 run through LDL cast in agarose; binding curve
Description: as §1

T1 sequence (P04114 28-4563): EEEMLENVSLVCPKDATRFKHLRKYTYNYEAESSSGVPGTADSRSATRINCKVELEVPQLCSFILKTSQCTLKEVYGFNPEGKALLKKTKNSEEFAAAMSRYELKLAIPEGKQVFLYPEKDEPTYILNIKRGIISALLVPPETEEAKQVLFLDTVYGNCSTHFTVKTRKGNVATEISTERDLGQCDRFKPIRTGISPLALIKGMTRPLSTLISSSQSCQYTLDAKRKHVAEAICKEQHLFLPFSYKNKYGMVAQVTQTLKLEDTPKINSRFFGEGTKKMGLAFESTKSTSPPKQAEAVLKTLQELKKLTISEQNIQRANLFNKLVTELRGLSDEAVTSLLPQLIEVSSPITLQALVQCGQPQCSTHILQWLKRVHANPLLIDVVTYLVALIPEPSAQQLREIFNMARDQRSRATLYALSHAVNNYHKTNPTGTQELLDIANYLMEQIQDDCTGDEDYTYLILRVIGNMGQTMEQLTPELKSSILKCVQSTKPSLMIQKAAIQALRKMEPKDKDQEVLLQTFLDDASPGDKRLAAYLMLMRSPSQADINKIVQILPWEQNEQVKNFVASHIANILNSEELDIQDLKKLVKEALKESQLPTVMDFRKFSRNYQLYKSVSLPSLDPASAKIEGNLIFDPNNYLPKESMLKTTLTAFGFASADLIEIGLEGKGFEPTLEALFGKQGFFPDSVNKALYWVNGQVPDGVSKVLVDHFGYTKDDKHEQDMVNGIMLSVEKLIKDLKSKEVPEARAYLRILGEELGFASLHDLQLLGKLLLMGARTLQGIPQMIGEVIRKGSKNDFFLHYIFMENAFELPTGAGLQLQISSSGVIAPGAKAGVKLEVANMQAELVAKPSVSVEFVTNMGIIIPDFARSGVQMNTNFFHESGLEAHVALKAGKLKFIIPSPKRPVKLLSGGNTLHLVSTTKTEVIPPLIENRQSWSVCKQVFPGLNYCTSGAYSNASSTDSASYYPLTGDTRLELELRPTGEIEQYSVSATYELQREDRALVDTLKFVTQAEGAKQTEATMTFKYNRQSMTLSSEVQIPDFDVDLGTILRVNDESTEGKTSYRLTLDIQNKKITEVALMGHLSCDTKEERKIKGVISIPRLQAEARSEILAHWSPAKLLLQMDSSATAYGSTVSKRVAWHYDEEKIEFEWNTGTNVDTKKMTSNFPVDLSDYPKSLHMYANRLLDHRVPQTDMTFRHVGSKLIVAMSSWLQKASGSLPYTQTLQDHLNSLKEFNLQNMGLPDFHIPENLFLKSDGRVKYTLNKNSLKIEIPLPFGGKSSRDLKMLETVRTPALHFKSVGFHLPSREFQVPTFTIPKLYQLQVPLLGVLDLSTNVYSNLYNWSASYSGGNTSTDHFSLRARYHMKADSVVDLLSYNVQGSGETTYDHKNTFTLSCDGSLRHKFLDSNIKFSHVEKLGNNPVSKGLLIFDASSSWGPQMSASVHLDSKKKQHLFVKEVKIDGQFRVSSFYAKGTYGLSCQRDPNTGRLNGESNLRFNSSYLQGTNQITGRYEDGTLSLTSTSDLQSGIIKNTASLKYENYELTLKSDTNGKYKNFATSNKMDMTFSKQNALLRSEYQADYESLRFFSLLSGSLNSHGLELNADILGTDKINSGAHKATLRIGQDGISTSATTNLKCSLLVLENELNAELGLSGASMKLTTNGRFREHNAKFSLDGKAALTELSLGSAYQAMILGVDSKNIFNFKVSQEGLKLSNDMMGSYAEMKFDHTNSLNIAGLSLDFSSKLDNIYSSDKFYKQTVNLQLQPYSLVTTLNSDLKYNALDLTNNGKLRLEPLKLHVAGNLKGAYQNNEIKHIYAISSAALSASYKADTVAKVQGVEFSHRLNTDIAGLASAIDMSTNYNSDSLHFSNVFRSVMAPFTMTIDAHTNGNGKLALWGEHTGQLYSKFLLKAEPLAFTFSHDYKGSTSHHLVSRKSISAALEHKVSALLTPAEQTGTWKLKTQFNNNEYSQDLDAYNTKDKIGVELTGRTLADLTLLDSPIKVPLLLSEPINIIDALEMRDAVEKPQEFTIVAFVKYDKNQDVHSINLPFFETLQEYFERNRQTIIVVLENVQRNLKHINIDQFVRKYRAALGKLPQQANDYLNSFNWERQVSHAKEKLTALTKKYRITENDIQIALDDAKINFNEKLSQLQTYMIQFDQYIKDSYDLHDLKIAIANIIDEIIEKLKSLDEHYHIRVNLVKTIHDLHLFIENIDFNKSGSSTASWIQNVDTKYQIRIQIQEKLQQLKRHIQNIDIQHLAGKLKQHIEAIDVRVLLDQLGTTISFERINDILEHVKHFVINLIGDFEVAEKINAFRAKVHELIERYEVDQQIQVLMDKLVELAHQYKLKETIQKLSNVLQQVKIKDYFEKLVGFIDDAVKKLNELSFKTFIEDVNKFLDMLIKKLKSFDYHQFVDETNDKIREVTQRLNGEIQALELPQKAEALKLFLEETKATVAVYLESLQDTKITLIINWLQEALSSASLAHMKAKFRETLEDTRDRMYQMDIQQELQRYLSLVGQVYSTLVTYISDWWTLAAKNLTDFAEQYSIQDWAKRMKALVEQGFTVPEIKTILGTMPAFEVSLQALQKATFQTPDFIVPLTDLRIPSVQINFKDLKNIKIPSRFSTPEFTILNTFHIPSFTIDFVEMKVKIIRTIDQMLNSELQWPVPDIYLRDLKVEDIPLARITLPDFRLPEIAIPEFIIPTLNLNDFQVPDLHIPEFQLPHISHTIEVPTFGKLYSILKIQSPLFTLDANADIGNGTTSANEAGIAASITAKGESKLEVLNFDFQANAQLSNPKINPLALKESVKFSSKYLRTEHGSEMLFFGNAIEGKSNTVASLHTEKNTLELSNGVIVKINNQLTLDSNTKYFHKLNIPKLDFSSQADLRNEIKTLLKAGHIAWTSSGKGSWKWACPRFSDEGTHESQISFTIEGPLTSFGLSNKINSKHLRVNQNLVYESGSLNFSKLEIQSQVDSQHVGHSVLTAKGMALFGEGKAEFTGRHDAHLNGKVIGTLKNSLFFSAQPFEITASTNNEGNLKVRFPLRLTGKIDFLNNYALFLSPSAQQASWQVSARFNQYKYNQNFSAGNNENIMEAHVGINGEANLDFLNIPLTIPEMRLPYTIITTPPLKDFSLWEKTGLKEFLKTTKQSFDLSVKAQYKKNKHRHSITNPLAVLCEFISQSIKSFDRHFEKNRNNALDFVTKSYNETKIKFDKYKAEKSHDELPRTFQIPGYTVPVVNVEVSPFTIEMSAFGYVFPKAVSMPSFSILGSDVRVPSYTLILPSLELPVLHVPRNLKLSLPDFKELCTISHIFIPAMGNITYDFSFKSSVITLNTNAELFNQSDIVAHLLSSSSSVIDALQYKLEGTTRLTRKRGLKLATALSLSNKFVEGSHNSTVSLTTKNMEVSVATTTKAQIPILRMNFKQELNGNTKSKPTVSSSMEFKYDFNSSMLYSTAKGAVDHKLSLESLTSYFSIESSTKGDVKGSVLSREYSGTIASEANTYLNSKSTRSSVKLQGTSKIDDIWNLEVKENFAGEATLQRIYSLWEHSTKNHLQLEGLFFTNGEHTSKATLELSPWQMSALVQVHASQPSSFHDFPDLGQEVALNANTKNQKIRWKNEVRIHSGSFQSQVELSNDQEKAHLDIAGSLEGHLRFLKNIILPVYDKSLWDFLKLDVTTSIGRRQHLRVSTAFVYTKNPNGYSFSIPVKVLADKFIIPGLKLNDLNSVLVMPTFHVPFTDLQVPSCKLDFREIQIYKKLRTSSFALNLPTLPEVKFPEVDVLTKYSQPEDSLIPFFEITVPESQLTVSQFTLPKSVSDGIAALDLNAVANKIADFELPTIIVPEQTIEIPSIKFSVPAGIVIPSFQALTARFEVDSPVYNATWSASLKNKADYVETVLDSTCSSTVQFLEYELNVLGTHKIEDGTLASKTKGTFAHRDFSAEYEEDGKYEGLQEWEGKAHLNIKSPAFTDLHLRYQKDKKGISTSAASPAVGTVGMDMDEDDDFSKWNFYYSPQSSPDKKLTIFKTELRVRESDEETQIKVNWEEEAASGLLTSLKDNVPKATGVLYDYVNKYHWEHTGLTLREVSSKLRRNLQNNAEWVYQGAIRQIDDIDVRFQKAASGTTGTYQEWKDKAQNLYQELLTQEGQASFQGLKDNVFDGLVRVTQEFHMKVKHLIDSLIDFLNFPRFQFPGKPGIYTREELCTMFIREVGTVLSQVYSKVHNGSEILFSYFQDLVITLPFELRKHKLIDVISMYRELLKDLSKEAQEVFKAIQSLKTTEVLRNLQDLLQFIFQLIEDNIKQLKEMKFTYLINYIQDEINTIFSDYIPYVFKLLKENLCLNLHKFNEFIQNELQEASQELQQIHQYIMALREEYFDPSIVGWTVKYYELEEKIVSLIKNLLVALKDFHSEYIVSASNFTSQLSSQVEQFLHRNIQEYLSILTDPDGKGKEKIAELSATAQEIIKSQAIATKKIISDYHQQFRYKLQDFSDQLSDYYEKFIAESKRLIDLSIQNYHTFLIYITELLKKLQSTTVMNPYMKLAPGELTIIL

Kd [1]: 333 nM
B1: recombinant rabbit LBP-3 (6-His tag) (other)
chain: MKNQDKKNGAAKQPNPKSSPGQPEAGAEGAQGRPGRPAPAREAEGASSQAPGRPEGAQAKTAQPGALCDVSEELSRQLEDILSTYCVDNNQGAPGEDGVQGEPPEPEDAEKSRAYVARNGEPEPGTPVVNGEKETSKAEPGTEEIRTSDEVGDRDHRRPQEKKKAKGLGKEITLLMQTLNTLSTPEEKLAALCKKYAELLEEHRNSQKQMKLLQKKQSQLVQEKDHLRGEHSKAILARSKLESLCRELQRHNRSLKEEGVQRAREEEEKRKEVTSHFQMTLNDIQLQMEQHNERNSKLRQENMELAERLKKLIEQYELREEHIDKVFKHKDLQQQLVDAKLQQAQEMLKEAEERHQREKDFLLKEAVESQRMCELMKQQETHLKQQLALYTEKFEEFQNTLSKSSEVFTTFKQEMEKMTKKIKKLEKETTMYRSRWESSNKALLEMAEEKTLRDKELEGLQVKIQRLEKLCRALQTERNDLNKRVQDLSAGGQGPVSDSGPERRPEPATTSKEQGVEGPGAQVPNSPRATDASCCAGAPSTEASGQTGPQEPTTATA
modifications: 125I-iodinated (Iodobeads) where used as the radiolabeled species in ACE assays
notes: also called LBP-3 (80 kDa fragment); rabbit recombinant LBP-3; not shown: N-terminal 6-histidine tag from the pPROEX-HT vector

Kd [2]: 100 nM
B2: recombinant rabbit LBP-2 clone 26 (6-His tag) (other)
chain: PPPPQQPQPPPEGGAARAGGPARPVSLREVVRYLGGSSGAGGRLTRGRVQGLLEEEAAARGRLERTRLGALALPRGDRPGRAPPAASARAARNKRAGEERVLEKEEEEEEEEDDEDDDDDVVSEGSEVPESDRPAGAQHHQLNGGERGPQTAKERAKEWSLCGPHPGQEEGRGPAAGSGTRQVFSMAALSKEGGSASSTTGPDSPSPVPLPPGKPALPGADGTPFGCPAGRKEKPADPVEWTVMDVVEYFTEAGFPEQATAFQEQEIDGKSLLLMQRTDVLTGLSIRLGPALKIYEHHIKVLQQGHFEDDDPEGFLG
modifications: 125I-iodinated (Iodobeads) where used as the radiolabeled species in ACE assays
notes: Clone 26 contains the acidic region, residues 338-365; also called LBP-2 (rabbit clone 26); clone 26 derived LBP-2; not shown: N-terminal 6-histidine tag from the pPROEX-HT vector
